Data taken from patent US20120107323A1, “KINASE PROTEIN BINDING INHIBITORS” (University of Florida, priority 2009, published 2012).

Target: IGF-1R of the transfected cells of Example 10 (confocal microscopy) (Homo sapiens (Human)) (UniProt P08069)
Assay: confocal microscopy, colocalization in cells transfected in the presence of the small molecule NSC 250435

percentage of interaction: 30%
Substance: GFP-fused FAK-NT2 (a.a. 127-243)
